Laboratory results: patent publication US20230331846A1 (INHIBRX, published 2023)
Substitutions are numbered along the chain they refer to.

T1: canine PD-1 (canine)
T1 construct: Expressed full length on transiently transfected 293FS cells; also called full length canine PD-1
T1 chain: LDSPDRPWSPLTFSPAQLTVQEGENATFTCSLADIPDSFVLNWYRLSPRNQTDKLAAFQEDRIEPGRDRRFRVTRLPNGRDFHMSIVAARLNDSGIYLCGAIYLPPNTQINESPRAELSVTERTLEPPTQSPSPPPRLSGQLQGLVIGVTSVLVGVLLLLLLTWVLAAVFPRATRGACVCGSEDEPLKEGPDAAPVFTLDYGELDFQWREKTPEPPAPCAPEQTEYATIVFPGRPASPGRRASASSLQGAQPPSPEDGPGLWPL

B1: czPD1-14v2-Fc xEML-DANA (Fc fusion)
chain: EVQLVESGGGEVKPGGSLRLSCVASGRTVSIYAMGWFRQAPGKEREFVAGIGWNGGTTYYADAVKGRFTISRDNAKNTVYLQMSSLRAEDTAVYYCAAQESAAGTLGDYWGQGTQVTVKPGGGGENGRVPRPPDCPKCPAPGGPSVFIFPPKPKDTLLIARTPEVTCVVVALDPEDPEVQISWFVDGKQMQTAKTQPREEQFAGTYRVVSVLPIGHQDWLKGKQFTCKVNNKALPSPIERTISKARGQAHQPSVYVLPPSREELSKNTVSLTCLIKDFFPPDIDVEWQSNGQQEPESKYRTTPPQLDEDGSYFLYSKLSVDKSRWQRGDTFICAVMHEALHNHYTQKSLSHSPGK
notes: Dimer formation is stated only in embodiment language
B2: czPD1-14v3-Fc xEML-DANA (Fc fusion)
chain: B1 chain with N74H
notes: as for B1
B3: czPD1-14v1-Fc xEML-DANA (Fc fusion)
chain: B1 chain with N54S
B4: PD1-14-Fc xEML-DANA (Fc fusion)
chain: QVQLQQSGGGLAQAGGSLRLSCAASGRTVSIYAMGWFRQAPGKEREFVAGIGWNGGTTYYADSVEGRFTISRDHAKNTAYLQMNSLKPEDTAVYYCAAQESAAGTLGDYWGRGTQVTVKPGGGGENGRVPRPPDCPKCPAPGGPSVFIFPPKPKDTLLIARTPEVTCVVVALDPEDPEVQISWFVDGKQMQTAKTQPREEQFAGTYRVVSVLPIGHQDWLKGKQFTCKVNNKALPSPIERTISKARGQAHQPSVYVLPPSREELSKNTVSLTCLIKDFFPPDIDVEWQSNGQQEPESKYRTTPPQLDEDGSYFLYSKLSVDKSRWQRGDTFICAVMHEALHNHYTQKSLSHSPGK
notes: as for B1
B5: PD1-13-Fc xEML-DANA (Fc fusion)
chain: QVTLKESGGGLVQAGGSLRLSCAASGRTEIIYAMGWFRQAPGKEREFVAGIGWSGGTTYYADSVEGRFTISRDSAKNTVYLQMRSLKPEDTAVYYCAAQDSVAGTLGDYWGQGTQVTVKPGGGGENGRVPRPPDCPKCPAPGGPSVFIFPPKPKDTLLIARTPEVTCVVVALDPEDPEVQISWFVDGKQMQTAKTQPREEQFAGTYRVVSVLPIGHQDWLKGKQFTCKVNNKALPSPIERTISKARGQAHQPSVYVLPPSREELSKNTVSLTCLIKDFFPPDIDVEWQSNGQQEPESKYRTTPPQLDEDGSYFLYSKLSVDKSRWQRGDTFICAVMHEALHNHYTQKSLSHSPGK
notes: as for B1
B6: PD1-5-Fc xEML-DANA (Fc fusion)
chain: QVTLRESGGGLVQPGGSLRLSCAASGLTFGLYAMTWFRQAPGKDREGISCISSSDGSTIYADSVKGRFTASRDNAKDTMYLQMNNLNPEDTAVYYCATDYETRCDYGLRLRDRTAYWGPGTQVTVKPENGRVPRPPDCPKCPAPGGPSVFIFPPKPKDTLLIARTPEVTCVVVALDPEDPEVQISWFVDGKQMQTAKTQPREEQFAGTYRVVSVLPIGHQDWLKGKQFTCKVNNKALPSPIERTISKARGQAHQPSVYVLPPSREELSKNTVSLTCLIKDFFPPDIDVEWQSNGQQEPESKYRTTPPQLDEDGSYFLYSKLSVDKSRWQRGDTFICAVMHEALHNHYTQKSLSHSPGK
B7: PD1-8-Fc xEML-DANA (Fc fusion)
chain: QVQLQQSGGGLVQAGGSLRVSCAASGRTFSSYGMGWFRQAPGKEREFVAAISWSGGTQYYADSAKGRFTISRDNAKNTVYLQMNSLKPEDTAVYYCADYTDYVVYRPQEIGYWGQGTQVTVKPENGRVPRPPDCPKCPAPGGPSVFIFPPKPKDTLLIARTPEVTCVVVALDPEDPEVQISWFVDGKQMQTAKTQPREEQFAGTYRVVSVLPIGHQDWLKGKQFTCKVNNKALPSPIERTISKARGQAHQPSVYVLPPSREELSKNTVSLTCLIKDFFPPDIDVEWQSNGQQEPESKYRTTPPQLDEDGSYFLYSKLSVDKSRWQRGDTFICAVMHEALHNHYTQKSLSHSPGK
B8: cCD19-4A8-Fc (Fc fusion, part only; not given: CD19 binding part, linker, not shown: another chain or arm of the molecule; small tags and cut ends)
Fc: ENGRVPRPPDCPPCPAPEMLGGPSVFIFPPKPKDTLLIARTPEVTCVVVDLDPEDPEVQISWFVDGKQMQTAKTQPREEQFNGTYRVVSVLPIGHQDWLKGKQFTCKVNNKALPSPIERTISKARGQAHQPSVYVLPPSREELSKNTVSLTCLIKDFFPPDIDVEWQSNGQQEPESKYRTTPPQLDEDGSYFLYSKLSVDKSRWQRGDTFICAVMHEALHNHYTQKSLSHSPGK

Target: T1, canine PD-1
Test: flow cytometry blocking assay: sdAb titrated against 4 nM canine PD-L1-hFc (the blocked ligand) on 293FS cells expressing canine PD-1
Protocol: (§1) Binding of canine PD-1 to PD-L1 in the presence of the sdAbs described in Example 1 was determined as follows. Each sdAb was incubated for 1 hour at room temperature in a PBS buffer, with 3 or 4 nM canine PD-L1-hFc fusion (Sino Biological) and untransfected 293FS cells or transfected 293FS cells expressing full length canine PD-1 (SEQ ID NO: 1). A fluorescent anti-Fc specific secondary antibody was used to detect […] by flow cytometry using an Intellicyte iQue analyzer. Mean fluorescence intensity was plotted for each concentration of sdAb tested.

| Binder | IC50 (read off the curve) [nM] |
| --- | --- |
| B1 | ~6 |
| B2 | ~6 |
| B3 | ~6 |
| B4 | ~6 |

Target: T1, canine PD-1
Test: flow cytometry on 293FS cells transiently expressing full length canine PD-1
Protocol: (§2) Binding of the sdAbs to canine PD-1 was determined as follows. Transiently transfected 293FS cells that express full length canine PD-1 and untransfected 293FS cells were plated at 50,000 cells/well in separate wells. Antibodies were titrated serially diluted 1:3 starting at 400 nM, and detected with anti-canine Fc 647 secondary antibody. Flow cytometric analysis was performed on an Intellicyte iQue analyzer and fluorescence was plotted as median fluorescence intensity.

| Binder | Kd [nM] |
| --- | --- |
| B5 | < 10 |
| B6 | < 10 |
| B1 | 6.65 |
| B2 | 3.24 |
| B3 | 4.15 |
| B7 | < 10 |
| B4 | 8.82 |

Target: T1, canine PD-1
Test: flow cytometry, sdAb titrated on 293FS cells expressing canine PD-1 (title: canPD1 binding), anti-canine Fc 647 secondary
Protocol: as §2

| Binder | EC50 (read off the curve) [nM] |
| --- | --- |
| B5 | ~2 |
| B6 | ~2 |
| B7 | ~2 |
| B4 | ~2 |

target: canine CD64 (canine) (UniProt Q7YQJ5); test: flow cytometry, sdAb titrated on 293FS cells transfected with full length canine CD64, anti-canine Fc 647 secondary
Sequence (Q7YQJ5 entry or part of it): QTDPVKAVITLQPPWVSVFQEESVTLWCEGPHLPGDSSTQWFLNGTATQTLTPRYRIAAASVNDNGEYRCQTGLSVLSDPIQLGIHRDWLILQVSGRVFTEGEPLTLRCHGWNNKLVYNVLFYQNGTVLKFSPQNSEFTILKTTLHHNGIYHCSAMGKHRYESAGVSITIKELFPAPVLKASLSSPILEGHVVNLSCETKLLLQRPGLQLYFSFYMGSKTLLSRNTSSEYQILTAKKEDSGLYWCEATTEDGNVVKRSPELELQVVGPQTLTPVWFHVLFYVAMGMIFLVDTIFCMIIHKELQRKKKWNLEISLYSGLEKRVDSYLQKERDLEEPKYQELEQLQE

| Binder | EC50 (read off the curve) [nM] |
| --- | --- |
| B8 | 9 |

Target: T1, canine PD-1
Test: cell-based or functional assay

| Binder | EC50 (nM), CD4 T cells (canine PBMCs, background corrected mean fluorescence intensity) [nM] | EC50 (nM), CD8 T cells (canine PBMCs, background corrected mean fluorescence intensity) [nM] |
| --- | --- | --- |
| B1 | 9.15 | 27.2 |
| B4 | 1.7 | 0.764 |

Target: T1, canine PD-1
Test: flow cytometry blocking assay: sdAb titrated against 3 nM canine PD-L1-hFc (the blocked ligand) on 293FS cells expressing canine PD-1
Protocol: as §1

| Binder | IC50 (read off the curve) [nM] |
| --- | --- |
| B5 | ~2 |
| B6 | ~2 |
| B4 | ~2 |
